These results are taken from patent publication US20250026837A1 (CANCURE, published 2025).

Assay [1] addresses T1, MICB (antigen in solution in the BLI assay) (UniProt Q29980 24-297, limits assumed).
T1 construct: also called antigen (MICB)
T1 sequence (looked up): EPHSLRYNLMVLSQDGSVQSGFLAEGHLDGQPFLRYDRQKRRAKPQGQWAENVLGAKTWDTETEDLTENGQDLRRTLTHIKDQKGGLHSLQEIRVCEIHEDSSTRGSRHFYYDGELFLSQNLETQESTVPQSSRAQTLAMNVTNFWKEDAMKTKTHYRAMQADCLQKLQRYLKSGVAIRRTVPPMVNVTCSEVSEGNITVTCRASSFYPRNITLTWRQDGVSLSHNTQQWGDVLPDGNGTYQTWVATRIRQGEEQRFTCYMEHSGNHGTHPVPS
The assay can be described thus: BLI, Octet Red96; antibody captured on biosensor, MICB dilution series in solution; 1:1 model, global fit; Ab-J (chimeric B10G5), FIG. 2A. How it is done:
(§1) Bio-layer interferometry (BLI) was performed using Octet Red96 (ForteBio) generally as described by Kamat and Rafique, Analytical Biochemistry 536: 16-31 (2017). Antibody samples, Ab-K and Ab-J (chimeric B10G5), were captured on kinetic grade biosensors. The loaded biosensors were then dipped into a dilution series of samples containing antigen (MICB) serially diluted in PBS buffer with 0.1% BSA, 0.02% Tween-20, pH 7.2. […] Kinetic analysis was performed using a 1:1 binding model and global fitting with mass transport limitation using the Scrubber software.

Assay [2] concerns the target T1, MICB (antigen in solution in the BLI …). The assay can be described thus: BLI, Octet Red96; antibody captured on biosensor, MICB dilution series in solution; 1:1 model, global fit; Ab-K (humanized), FIG. 2B. On the procedure: as §1
(In BLI a coated tip is dipped into the sample, and binding shifts an interference pattern.)

B1: antibody J (Ab-J; chimeric B10G5, parental HC / parental LC with human IgG1 Fc region) (antibody, V domains shown)
VH: EVQLEESGPGLVKPSQSLSLTCTVTGYSITSDYAWNWIRQFPGNKLEWMGYISYSGSTNYNPSLKSRISITRDTSKNQFFLQLNSVITEDTATYYCARGGTYFDYWGQGTTLTVSS
VL: DIVLTQTTSYLSVSLGGRVTIACKASAHINNWLAWYQQKPGNAPRLLISDATSLETGVPSRFSGSGSGKDYTLSITSLQTEDVATYYCQHYWSTPWTFGGGTKLEIK
notes: also called chimeric antibody B10G5
As for B1, in assay [1], binding was put at a Kd of 12.1 nM.

B2: antibody K (Ab-K; humanized HC2 / humanized LC3, human IgG1) (antibody, V domains shown)
VH: EVQLQESGPGLVKPSQTLSLTCTVSGYSITSDYAWNWIRQPPGKGLEWIGYISYSGSTNYNPSLKSRVTISRDTSKNQFSLKLSSVTAADTAVYYCARGGTYFDYWGQGTLVTVSS
VL: DVVMTQSPSTLSASVGDRVTITCRASAHINNWLAWYQQKPGKAPKLLISDATSLESGVPSRFSGSGSGKEYTLTISSLQPDDFATYYCQHYWSTPWTFGQGTKVEIKR
notes: also called K (HC2/LC3)
Turning to B2, the Kd in assay [2] amounted to 7.2 nM.

The Kd is the free concentration of one partner at which half of the binding sites on the other are occupied at equilibrium, for simple one-to-one binding.
